From the Human Domainome abundance scans (Beltran et al. 2025)
± gives the uncertainty stated by the source.

B1: Far upstream element-binding protein 2, residues 142 to 214; numbered along this chain, Q92945 (parent)
chain: RTSMTEEYRVPDGMVGLIIGRGGEQINKIQQDSGCKVQISPDSGGLPERSVSLTGAPESVQKAKMMLDDIVSR

Variants of: B1
Experiment: abundance fitness (aPCA) (normalised: wild type 0, dead -1); higher = more abundant; growth selection in yeast, the domain comes from the species named
Details: Homo sapiens

Variant	abundance fitness
RTSMTEEYRVPDGMVGLIIGRGGEQINKNQQDSGCKVQISPDSGGLPERSVSLTGAPESVQKAKMMLDDIVSR [I29N]	-0.869 ± 0.14
RTSMTEEYRVPDGMVGLIIGRGGEQINKQQQDSGCKVQISPDSGGLPERSVSLTGAPESVQKAKMMLDDIVSR [I29Q]	-0.841 ± 0.071
RTSMTEEYRVPDGMVGLIIGRGGEQINKEQQDSGCKVQISPDSGGLPERSVSLTGAPESVQKAKMMLDDIVSR [I29E]	-0.736 ± 0.064
RTSMTEEYRVPDGMVGLIIGRGGEQINKPQQDSGCKVQISPDSGGLPERSVSLTGAPESVQKAKMMLDDIVSR [I29P]	-0.849 ± 0.071
RTSMTEEYRVPDGMVGLIIGRGGEQINKMQQDSGCKVQISPDSGGLPERSVSLTGAPESVQKAKMMLDDIVSR [I29M]	-0.524 ± 0.061
RTSMTEEYRVPDGMVGLIIGRGGEQINKHQQDSGCKVQISPDSGGLPERSVSLTGAPESVQKAKMMLDDIVSR [I29H]	-0.984 ± 0.11
RTSMTEEYRVPDGMVGLIIGRGGEQINKFQQDSGCKVQISPDSGGLPERSVSLTGAPESVQKAKMMLDDIVSR [I29F]	-0.682 ± 0.11
RTSMTEEYRVPDGMVGLIIGRGGEQINKAQQDSGCKVQISPDSGGLPERSVSLTGAPESVQKAKMMLDDIVSR [I29A]	-0.811 ± 0.053
RTSMTEEYRVPDGMVGLIIGRGGEQINKYQQDSGCKVQISPDSGGLPERSVSLTGAPESVQKAKMMLDDIVSR [I29Y]	-0.971 ± 0.11
RTSMTEEYRVPDGMVGLIIGRGGEQINKTQQDSGCKVQISPDSGGLPERSVSLTGAPESVQKAKMMLDDIVSR [I29T]	-0.745 ± 0.065
RTSMTEEYRVPDGMVGLIIGRGGEQINKRQQDSGCKVQISPDSGGLPERSVSLTGAPESVQKAKMMLDDIVSR [I29R]	-0.995 ± 0.046
RTSMTEEYRVPDGMVGLIIGRGGEQINKWQQDSGCKVQISPDSGGLPERSVSLTGAPESVQKAKMMLDDIVSR [I29W]	-0.981 ± 0.063
RTSMTEEYRVPDGMVGLIIGRGGEQINKVQQDSGCKVQISPDSGGLPERSVSLTGAPESVQKAKMMLDDIVSR [I29V]	-0.185 ± 0.041
RTSMTEEYRVPDGMVGLIIGRGGEQINKGQQDSGCKVQISPDSGGLPERSVSLTGAPESVQKAKMMLDDIVSR [I29G]	-0.856 ± 0.044
RTSMTEEYRVPDGMVGLIIGRGGEQINKSQQDSGCKVQISPDSGGLPERSVSLTGAPESVQKAKMMLDDIVSR [I29S]	-0.819 ± 0.056
RTSMTEEYRVPDGMVGLIIGRGGEQINKKQQDSGCKVQISPDSGGLPERSVSLTGAPESVQKAKMMLDDIVSR [I29K]	-0.787 ± 0.078
RTSMTEEYRVPDGMVGLIIGRGGEQVNKIQQDSGCKVQISPDSGGLPERSVSLTGAPESVQKAKMMLDDIVSR [I26V]	-0.146 ± 0.05
RTSMTEEYRVPDGMVGLIIGRGGEQRNKIQQDSGCKVQISPDSGGLPERSVSLTGAPESVQKAKMMLDDIVSR [I26R]	-0.533 ± 0.039
RTSMTEEYRVPDGMVGLIIGRGGEQSNKIQQDSGCKVQISPDSGGLPERSVSLTGAPESVQKAKMMLDDIVSR [I26S]	-0.693 ± 0.055
RTSMTEEYRVPDGMVGLIIGRGGEQWNKIQQDSGCKVQISPDSGGLPERSVSLTGAPESVQKAKMMLDDIVSR [I26W]	-0.215 ± 0.11
RTSMTEEYRVPDGMVGLIIGRGGEQTNKIQQDSGCKVQISPDSGGLPERSVSLTGAPESVQKAKMMLDDIVSR [I26T]	-0.451 ± 0.061
RTSMTEEYRVPDGMVGLIIGRGGEQYNKIQQDSGCKVQISPDSGGLPERSVSLTGAPESVQKAKMMLDDIVSR [I26Y]	-0.769 ± 0.23
RTSMTEEYRVPDGMVGLIIGRGGEQINKIQDDSGCKVQISPDSGGLPERSVSLTGAPESVQKAKMMLDDIVSR [Q31D]	-0.16 ± 0.081
RTSMTEEYRVPDGMVGLIIGRGGEQINKIQADSGCKVQISPDSGGLPERSVSLTGAPESVQKAKMMLDDIVSR [Q31A]	-0.109 ± 0.046
RTSMTEEYRVPDGMVGLIIGRGGEQINKIYQDSGCKVQISPDSGGLPERSVSLTGAPESVQKAKMMLDDIVSR [Q30Y]	-0.866 ± 0.28

Variant	abundance fitness
RTSMTEEYRVPDGMVGLIIGRGGEQINKISQDSGCKVQISPDSGGLPERSVSLTGAPESVQKAKMMLDDIVSR [Q30S]	-0.078 ± 0.047
RTSMTEEYRVPDGMVGLIIGRGGEQINKIRQDSGCKVQISPDSGGLPERSVSLTGAPESVQKAKMMLDDIVSR [Q30R]	-0.066 ± 0.038
RTSMTEEYRVPDGMVGLIIGRGGEQINKIPQDSGCKVQISPDSGGLPERSVSLTGAPESVQKAKMMLDDIVSR [Q30P]	-0.809 ± 0.063
RTSMTEEYRVPDGMVGLIIGRGGEQINKIVQDSGCKVQISPDSGGLPERSVSLTGAPESVQKAKMMLDDIVSR [Q30V]	-0.132 ± 0.044
RTSMTEEYRVPDGMVGLIIGRGGEQINKIWQDSGCKVQISPDSGGLPERSVSLTGAPESVQKAKMMLDDIVSR [Q30W]	-0.507 ± 0.057
RTSMTEEYRVPDGMVGLIIGRGGEQINKIHQDSGCKVQISPDSGGLPERSVSLTGAPESVQKAKMMLDDIVSR [Q30H]	-0.384 ± 0.088
RTSMTEEYRVPDGMVGLIIGRGGEQINKIEQDSGCKVQISPDSGGLPERSVSLTGAPESVQKAKMMLDDIVSR [Q30E]	-0.067 ± 0.053
RTSMTEEYRVPDGMVGLIIGRGGEQINKIKQDSGCKVQISPDSGGLPERSVSLTGAPESVQKAKMMLDDIVSR [Q30K]	-0.181 ± 0.065
RTSMTEEYRVPDGMVGLIIGRGGEQINKIAQDSGCKVQISPDSGGLPERSVSLTGAPESVQKAKMMLDDIVSR [Q30A]	-0.067 ± 0.042
RTSMTEEYRVPDGMVGLIIGRGGEQINKINQDSGCKVQISPDSGGLPERSVSLTGAPESVQKAKMMLDDIVSR [Q30N]	-0.455 ± 0.11
RTSMTEEYRVPDGMVGLIIGRGGEQINKIMQDSGCKVQISPDSGGLPERSVSLTGAPESVQKAKMMLDDIVSR [Q30M]	0.107 ± 0.066
RTSMTEEYRVPDGMVGLIIGRGGEQINKITQDSGCKVQISPDSGGLPERSVSLTGAPESVQKAKMMLDDIVSR [Q30T]	-0.17 ± 0.053
RTSMTEEYRVPDGMVGLIIGRGGEQINKIDQDSGCKVQISPDSGGLPERSVSLTGAPESVQKAKMMLDDIVSR [Q30D]	-1.02 ± 0.095
RTSMTEEYRVPDGMVGLIIGRGGEQINKIFQDSGCKVQISPDSGGLPERSVSLTGAPESVQKAKMMLDDIVSR [Q30F]	-0.252 ± 0.11
RTSMTEEYRVPDGMVGLIIGRGGEQINKIGQDSGCKVQISPDSGGLPERSVSLTGAPESVQKAKMMLDDIVSR [Q30G]	-0.24 ± 0.038
RTSMTEEYRVPDGMVGLIIGRGGEQINKILQDSGCKVQISPDSGGLPERSVSLTGAPESVQKAKMMLDDIVSR [Q30L]	-0.241 ± 0.049
RTSMTEEYRVPDGMVGLIIGRGGEQINKICQDSGCKVQISPDSGGLPERSVSLTGAPESVQKAKMMLDDIVSR [Q30C]	-0.12 ± 0.069
RTSMTEEYRVPDGMVGLIIGRGGEQINAIQQDSGCKVQISPDSGGLPERSVSLTGAPESVQKAKMMLDDIVSR [K28A]	-0.144 ± 0.048
RTSMTEEYRVPDGMVGLIIGRGGEQINRIQQDSGCKVQISPDSGGLPERSVSLTGAPESVQKAKMMLDDIVSR [K28R]	0.002 ± 0.036
RTSMTEEYRVPDGMVGLIIGRGGEQINLIQQDSGCKVQISPDSGGLPERSVSLTGAPESVQKAKMMLDDIVSR [K28L]	-0.239 ± 0.044
RTSMTEEYRVPDGMVGLIIGRGGEQINIIQQDSGCKVQISPDSGGLPERSVSLTGAPESVQKAKMMLDDIVSR [K28I]	-0.269 ± 0.11
RTSMTEEYRVPDGMVGLIIGRGGEQINCIQQDSGCKVQISPDSGGLPERSVSLTGAPESVQKAKMMLDDIVSR [K28C]	-0.597 ± 0.082
RTSMTEEYRVPDGMVGLIIGRGGEQINFIQQDSGCKVQISPDSGGLPERSVSLTGAPESVQKAKMMLDDIVSR [K28F]	-0.4 ± 0.11
RTSMTEEYRVPDGMVGLIIGRGGEQINEIQQDSGCKVQISPDSGGLPERSVSLTGAPESVQKAKMMLDDIVSR [K28E]	-0.243 ± 0.065
RTSMTEEYRVPDGMVGLIIGRGGEQINMIQQDSGCKVQISPDSGGLPERSVSLTGAPESVQKAKMMLDDIVSR [K28M]	-0.085 ± 0.062

Variant	abundance fitness
RTSMTEEYRVPDGMVGLIIGRGGEQINNIQQDSGCKVQISPDSGGLPERSVSLTGAPESVQKAKMMLDDIVSR [K28N]	-0.256 ± 0.16
RTSMTEEYRVPDGMVGLIIGRGGEQINHIQQDSGCKVQISPDSGGLPERSVSLTGAPESVQKAKMMLDDIVSR [K28H]	-0.162 ± 0.077
RTSMTEEYRVPDGMVGLIIGRGGEQINDIQQDSGCKVQISPDSGGLPERSVSLTGAPESVQKAKMMLDDIVSR [K28D]	-0.431 ± 0.083
RTSMTEEYRVPDGMVGLIIGRGGEQINGIQQDSGCKVQISPDSGGLPERSVSLTGAPESVQKAKMMLDDIVSR [K28G]	-0.507 ± 0.039
RTSMTEEYRVPDGMVGLIIGRGGEQINYIQQDSGCKVQISPDSGGLPERSVSLTGAPESVQKAKMMLDDIVSR [K28Y]	-0.337 ± 0.14
RTSMTEEYRVPDGMVGLIIGRGGEQINPIQQDSGCKVQISPDSGGLPERSVSLTGAPESVQKAKMMLDDIVSR [K28P]	-0.751 ± 0.069
RTSMTEEYRVPDGMVGLIIGRGGEQINWIQQDSGCKVQISPDSGGLPERSVSLTGAPESVQKAKMMLDDIVSR [K28W]	-0.51 ± 0.051
RTSMTEEYRVPDGMVGLIIGRGGEQINVIQQDSGCKVQISPDSGGLPERSVSLTGAPESVQKAKMMLDDIVSR [K28V]	-0.419 ± 0.046
RTSMTEEYRVPDGMVGLIIGRGGEQINTIQQDSGCKVQISPDSGGLPERSVSLTGAPESVQKAKMMLDDIVSR [K28T]	-0.209 ± 0.064
RTSMTEEYRVPDGMVGLIIGRGGEQIKKIQQDSGCKVQISPDSGGLPERSVSLTGAPESVQKAKMMLDDIVSR [N27K]	0.013 ± 0.057
RTSMTEEYRVPDGMVGLIIGRGGEQIGKIQQDSGCKVQISPDSGGLPERSVSLTGAPESVQKAKMMLDDIVSR [N27G]	-0.137 ± 0.044
RTSMTEEYRVPDGMVGLIIGRGGEQIIKIQQDSGCKVQISPDSGGLPERSVSLTGAPESVQKAKMMLDDIVSR [N27I]	-0.109 ± 0.086
RTSMTEEYRVPDGMVGLIIGRGGEQITKIQQDSGCKVQISPDSGGLPERSVSLTGAPESVQKAKMMLDDIVSR [N27T]	0.007 ± 0.049
RTSMTEEYRVPDGMVGLIIGRGGEQIAKIQQDSGCKVQISPDSGGLPERSVSLTGAPESVQKAKMMLDDIVSR [N27A]	-0.095 ± 0.048
RTSMTEEYRVPDGMVGLIIGRGGEQILKIQQDSGCKVQISPDSGGLPERSVSLTGAPESVQKAKMMLDDIVSR [N27L]	-0.076 ± 0.043
RTSMTEEYRVPDGMVGLIIGRGGEQIPKIQQDSGCKVQISPDSGGLPERSVSLTGAPESVQKAKMMLDDIVSR [N27P]	-0.476 ± 0.051
RTSMTEEYRVPDGMVGLIIGRGGEQIQKIQQDSGCKVQISPDSGGLPERSVSLTGAPESVQKAKMMLDDIVSR [N27Q]	-0.018 ± 0.053
RTSMTEEYRVPDGMVGLIIGRGGEQIFKIQQDSGCKVQISPDSGGLPERSVSLTGAPESVQKAKMMLDDIVSR [N27F]	-0.081 ± 0.097
RTSMTEEYRVPDGMVGLIIGRGGEQIEKIQQDSGCKVQISPDSGGLPERSVSLTGAPESVQKAKMMLDDIVSR [N27E]	-0.006 ± 0.078
RTSMTEEYRVPDGMVGLIIGRGGEQIWKIQQDSGCKVQISPDSGGLPERSVSLTGAPESVQKAKMMLDDIVSR [N27W]	-0.209 ± 0.045
RTSMTEEYRVPDGMVGLIIGRGGEQISKIQQDSGCKVQISPDSGGLPERSVSLTGAPESVQKAKMMLDDIVSR [N27S]	-0.054 ± 0.044
RTSMTEEYRVPDGMVGLIIGRGGEQIDKIQQDSGCKVQISPDSGGLPERSVSLTGAPESVQKAKMMLDDIVSR [N27D]	-0.029 ± 0.1
RTSMTEEYRVPDGMVGLIIGRGGEQIMKIQQDSGCKVQISPDSGGLPERSVSLTGAPESVQKAKMMLDDIVSR [N27M]	-0.085 ± 0.069
RTSMTEEYRVPDGMVGLIIGRGGEQIHKIQQDSGCKVQISPDSGGLPERSVSLTGAPESVQKAKMMLDDIVSR [N27H]	-0.094 ± 0.077
RTSMTEEYRVPDGMVGLIIGRGGEQIRKIQQDSGCKVQISPDSGGLPERSVSLTGAPESVQKAKMMLDDIVSR [N27R]	0.017 ± 0.035
